Assay results taken from patent US20040018971A1 (published 2004).

B1: Her2/neu.921.F1I11 (peptide)
peptide: FPYDGIPAREI
notes: 11-mer B7 supermotif analog of the HER2/neu peptide starting at position 921
B2: Her2/neu.966.F1I11 (peptide)
peptide: FPRFRELVSEI
notes: 11-mer analog of the HER2/neu peptide starting at position 966
B3: Her2/neu.995.F1 (peptide)
peptide: FPASPLDSTF
notes: 10-mer analog of the HER2/neu peptide starting at position 995
B4: Her2/neu.998.F1I11 (peptide)
peptide: FPLDSTFYRSI
notes: 11-mer analog of the HER2/neu peptide starting at position 998
B5: Her2/neu.998.F1 (peptide)
peptide: FPLDSTFYRSL
notes: as for B4
B6: Her2/neu.1073.F1I9 (peptide)
peptide: FPLAPSEGI
notes: 9-mer analog of the HER2/neu peptide starting at position 1073
B7: Her2/neu.1155.F1 (peptide)
peptide: FPLPAARPA
notes: 9-mer analog of the HER2/neu peptide starting at position 1155
B8: Her2/neu.1157.F1 (peptide)
peptide: FPAARPAGATL
notes: 11-mer analog of the HER2/neu peptide starting at position 1157
B9: HER2/NEU A03 motif peptide, position 166, 10 amino acids (peptide)
peptide: TILWKDIFHK
notes: Synthetic peptide; also called Her2/neu.166
B10: HER2/NEU A03 motif peptide, position 402, 10 amino acids (peptide)
peptide: TLEEITGYLY
notes: Synthetic peptide; also called Her2/neu.402

Target: HLA-B*0702 (human)
Assay: competition with 125I probe peptide, purified HLA

Binder | IC50 [nM]
FPTNASLSF (analog peptide) [Her2/neu.65.F1 (9-mer)] | 1.1
FPTNASLSI (analog peptide) [Her2/neu.65.F1I9] | 4.6
FPTNASLSFI (analog peptide) [Her2/neu.65.F1I10] | 120
FPLNNTTPI (analog peptide) [Her2/neu.121.F1I9] | 1.6
FPLNNTTPV (analog peptide) [Her2/neu.121.F1] | 0.2
MPNPEGRYTI (analog peptide) [Her2/neu.282.I10] | 34
FPNPEGRYTI (analog peptide) [Her2/neu.282.F1] | 324
FPCARVCYGL (analog peptide) [Her2/neu.336.F1] | 190
FPHQALLHTA (analog peptide) [Her2/neu.488.F1] | 393
FPHQALLHTI (analog peptide) [Her2/neu.488.F1I10] | 86
FPSGVKPDI (analog peptide) [Her2/neu.600.F1I9] | 6.3
FPDLSYMPI (analog peptide) [Her2/neu.605.F1] | 22

Target: HLA-B*3501 (human)
Assay: competition with 125I probe peptide, purified HLA

Binder | IC50 [nM]
FPTNASLSF (analog peptide) [Her2/neu.65.F1 (9-mer)] | 7.9
FPTNASLSI (analog peptide) [Her2/neu.65.F1I9] | 300
FPTNASLSFI (analog peptide) [Her2/neu.65.F1I10] | 424
FPLNNTTPI (analog peptide) [Her2/neu.121.F1I9] | 200
FPLNNTTPV (analog peptide) [Her2/neu.121.F1] | 40
MPNPEGRYTI (analog peptide) [Her2/neu.282.I10] | 111
FPNPEGRYTI (analog peptide) [Her2/neu.282.F1] | 24
FPCARVCYGL (analog peptide) [Her2/neu.336.F1] | 450
FPHQALLHTA (analog peptide) [Her2/neu.488.F1] | 379
FPHQALLHTI (analog peptide) [Her2/neu.488.F1I10] | 655
FPSGVKPDI (analog peptide) [Her2/neu.600.F1I9] | 9000
FPDLSYMPI (analog peptide) [Her2/neu.605.F1] | 167

Target: HLA-B*5101 (human)
Assay: competition with 125I probe peptide, purified HLA

Binder | IC50 [nM]
FPTNASLSF (analog peptide) [Her2/neu.65.F1 (9-mer)] | 85
FPTNASLSI (analog peptide) [Her2/neu.65.F1I9] | 8.7
FPTNASLSFI (analog peptide) [Her2/neu.65.F1I10] | 23
FPLNNTTPI (analog peptide) [Her2/neu.121.F1I9] | 13
FPLNNTTPV (analog peptide) [Her2/neu.121.F1] | 7.1
MPNPEGRYTI (analog peptide) [Her2/neu.282.I10] | 13
FPNPEGRYTI (analog peptide) [Her2/neu.282.F1] | 9.3
FPCARVCYGL (analog peptide) [Her2/neu.336.F1] | 1000
FPHQALLHTA (analog peptide) [Her2/neu.488.F1] | 4230
FPHQALLHTI (analog peptide) [Her2/neu.488.F1I10] | 19
FPSGVKPDI (analog peptide) [Her2/neu.600.F1I9] | 204
FPDLSYMPI (analog peptide) [Her2/neu.605.F1] | 10

Target: HLA-B*5301 (human)
Assay: competition with 125I probe peptide, purified HLA

Binder | IC50 [nM]
FPTNASLSF (analog peptide) [Her2/neu.65.F1 (9-mer)] | 6.2
FPTNASLSI (analog peptide) [Her2/neu.65.F1I9] | 14
FPTNASLSFI (analog peptide) [Her2/neu.65.F1I10] | 85
FPLNNTTPI (analog peptide) [Her2/neu.121.F1I9] | 52
FPLNNTTPV (analog peptide) [Her2/neu.121.F1] | 1070
MPNPEGRYTI (analog peptide) [Her2/neu.282.I10] | 9.3
FPNPEGRYTI (analog peptide) [Her2/neu.282.F1] | 6.6
FPCARVCYGL (analog peptide) [Her2/neu.336.F1] | 1690
FPHQALLHTI (analog peptide) [Her2/neu.488.F1I10] | 42
FPSGVKPDI (analog peptide) [Her2/neu.600.F1I9] | 930
FPDLSYMPI (analog peptide) [Her2/neu.605.F1] | 72

Target: HLA-B*5401 (human)
Assay: competition with 125I probe peptide, purified HLA

Binder | IC50 [nM]
FPTNASLSF (analog peptide) [Her2/neu.65.F1 (9-mer)] | 556
FPTNASLSI (analog peptide) [Her2/neu.65.F1I9] | 2.8
FPTNASLSFI (analog peptide) [Her2/neu.65.F1I10] | 53
FPLNNTTPI (analog peptide) [Her2/neu.121.F1I9] | 1.6
FPLNNTTPV (analog peptide) [Her2/neu.121.F1] | 1.1
MPNPEGRYTI (analog peptide) [Her2/neu.282.I10] | 46
FPNPEGRYTI (analog peptide) [Her2/neu.282.F1] | 3.2
FPCARVCYGL (analog peptide) [Her2/neu.336.F1] | 36
FPHQALLHTA (analog peptide) [Her2/neu.488.F1] | 1.3
FPHQALLHTI (analog peptide) [Her2/neu.488.F1I10] | 4
FPSGVKPDI (analog peptide) [Her2/neu.600.F1I9] | 44
FPDLSYMPI (analog peptide) [Her2/neu.605.F1] | 31

Target: HLA-B*0702 (human)
Assay: competition vs 125I-labelled probe peptide, purified HLA, gel filtration

Binder | IC50 [nM]
B1 | 141
B2 | 229
B3 | 3.7
B4 | 229
B5 | 42
B6 | 100
FPTHDPSPI [Her2/neu.1101.F1I9] | 108
FPSETDGYI [Her2/neu.1120.F1I9] | 220
B7 | 34
B8 | 3.9

Target: HLA-B*3501 (human)
Assay: as above

Binder | IC50 [nM]
B1 | 2880
B2 | 240
B3 | 10
B4 | 2670
B5 | 400
B6 | 554
FPTHDPSPI [Her2/neu.1101.F1I9] | 600
FPSETDGYI [Her2/neu.1120.F1I9] | 655
B7 | 277
B8 | 360

Target: HLA-B*5101 (human)
Assay: as above

Binder | IC50 [nM]
B1 | 50
B2 | 167
B3 | 579
B4 | 46
B5 | 324
B6 | 204
FPTHDPSPI [Her2/neu.1101.F1I9] | 56
FPSETDGYI [Her2/neu.1120.F1I9] | 31
B7 | 1900
B8 | 239

Target: HLA-B*5301 (human)
Assay: as above

Binder | IC50 [nM]
B1 | 465
B3 | 10
B4 | 620
B5 | 1190
B6 | 239
FPTHDPSPI [Her2/neu.1101.F1I9] | 274
FPSETDGYI [Her2/neu.1120.F1I9] | 37
B8 | 2910

Target: HLA-B*5401 (human)
Assay: as above

Binder | IC50 [nM]
B1 | 15
B2 | 28
B3 | 200
B4 | 2.4
B5 | 2.7
B6 | 5.9
FPTHDPSPI [Her2/neu.1101.F1I9] | 50
FPSETDGYI [Her2/neu.1120.F1I9] | 156
B7 | 1.5

Target: HLA-A*0301 (purified HLA class I molecule) (human)
Assay: competition with 125I-labelled probe peptide on purified HLA-A*0301, gel filtration

Binder | relative binding ratio (IC50 of standard peptide / IC50 of test peptide) [ratio]
RGTQLFEDNY (Synthetic peptide) [HER2/NEU A03 motif peptide, position 103, 10 amino acids] | 0.0003
RILKETELR (Synthetic peptide) [HER2/NEU A03 motif peptide, position 713, 9 amino acids] | 0.0007
RILKETELRK (Synthetic peptide) [HER2/NEU A03 motif peptide, position 713, 10 amino acids] | 0.057
RLLDIDETEY (Synthetic peptide) [HER2/NEU A03 motif peptide, position 868, 10 amino acids] | 0.0017
RLVHRDLAAR (Synthetic peptide) [HER2/NEU A03 motif peptide, position 840, 10 amino acids] | 0.18
RMARDPQRF (Synthetic peptide) [HER2/NEU A03 motif peptide, position 978, 9 amino acids] | 0.0001
RVLQGLPREY (Synthetic peptide) [HER2/NEU A03 motif peptide, position 545, 10 amino acids] | 0.035
SMPNPEGRY (Synthetic peptide) [HER2/NEU A03 motif peptide, position 281, 9 amino acids] | 0.0002
SSEDCQSLTR (Synthetic peptide) [HER2/NEU A03 motif peptide, position 208, 10 amino acids] | -0.0002
SVFQNLQVIR (Synthetic peptide) [HER2/NEU A03 motif peptide, position 423, 10 amino acids] | 0.017
TIDVYMIMVK (Synthetic peptide) [HER2/NEU A03 motif peptide, position 948, 10 amino acids] | 0.013
B9 | 0.043
B10 | 0.0001
TLIDTNRSR (Synthetic peptide) [HER2/NEU A03 motif peptide, position 182, 9 amino acids] | 0.0004

Target: T1, HLA-A*0301 (purified HLA class I molecule) (human)
T1 construct: also called HLA-A3
Assay: competition with 125I-labelled probe peptide for purified HLA-A*0301, gel filtration

Binder | relative binding ratio
AFSPAFDNLY (also called Her2/neu.1212 10-mer) [HER2/neu peptide, position 1212, 10 amino acids (AFSPAFDNLY)] | 0.0003 ratio (IC50 of standard peptide / IC50 of test peptide)
ALESILRRR (also called Her2/neu.890 9-mer) [HER2/neu peptide, position 890, 9 amino acids (ALESILRRR)] | 0.0013 ratio (IC50 of standard peptide / IC50 of test peptide)
ALTLIDTNR (also called Her2/neu.180 9-mer) [HER2/neu peptide, position 180, 9 amino acids (ALTLIDTNR)] | 0.0004 ratio (IC50 of standard peptide / IC50 of test peptide)
AMPNQAQMR (also called Her2/neu.705 9-mer) [HER2/neu peptide, position 705, 9 amino acids (AMPNQAQMR)] | 0.0004 ratio (IC50 of standard peptide / IC50 of test peptide)
ASCVTACPY [HER2/neu peptide, position 293, 9 amino acids (ASCVTACPY)] | 0.0008 ratio (IC50 of standard peptide / IC50 of test peptide)
ASPLDSTFY [HER2/neu peptide, position 997, 9 amino acids (ASPLDSTFY)] | 0.0002 ratio (IC50 of standard peptide / IC50 of test peptide)
CAAGCTGPK (also called Her2/neu.240 9-mer) [HER2/neu peptide, position 240, 9 amino acids (CAAGCTGPK)] | 0.0021 ratio (IC50 of standard peptide / IC50 of test peptide)
CAGGCARCK (also called Her2/neu.220 9-mer) [HER2/neu peptide, position 220, 9 amino acids (CAGGCARCK)] | -0.0002 ratio (IC50 of standard peptide / IC50 of test peptide)
CLLDHVRENR (also called Her2/neu.805 10-mer) [HER2/neu peptide, position 805, 10 amino acids (CLLDHVRENR)] | 0.0003 ratio (IC50 of standard peptide / IC50 of test peptide)
CSKPCARVCY (also called Her2/neu.334 10-mer) [HER2/neu peptide, position 334, 10 amino acids (CSKPCARVCY)] | 0.0003 ratio (IC50 of standard peptide / IC50 of test peptide)
CSPMCKGSR (also called Her2/neu.195 9-mer) [HER2/neu peptide, position 195, 9 amino acids (CSPMCKGSR)] | -0.0008 ratio (IC50 of standard peptide / IC50 of test peptide)
CTGTDMKLR (also called Her2/neu.26 9-mer) [HER2/neu peptide, position 26, 9 amino acids (CTGTDMKLR)] | 0.0002 ratio (IC50 of standard peptide / IC50 of test peptide)
CVARCPSGVK (also called Her2/neu.596 10-mer) [HER2/neu peptide, position 596, 10 amino acids (CVARCPSGVK)] | 0.022 ratio (IC50 of standard peptide / IC50 of test peptide)
CVNCSQFLR (also called Her2/neu.528 9-mer) [HER2/neu peptide, position 528, 9 amino acids (CVNCSQFLR)] | 0.0015 ratio (IC50 of standard peptide / IC50 of test peptide)
CVTACPYNY (also called Her2/neu.295 9-mer) [HER2/neu peptide, position 295, 9 amino acids (CVTACPYNY)] | 0.0002 ratio (IC50 of standard peptide / IC50 of test peptide)
